94 variants from the supplement of paper PMC10567573 can be followed below.

B1: PPFIA4 (parent)
chain: VMTLPSDLRKHRRKLLSPVSREEN
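Note: lentivirally expressed fusions sorted by FACS into six bins by GFP to DsRed ratio, PSI derived from sequencing read proportions per bin multiplied by bin number.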

In the data set the parent is B1. The data set can be described thus: protein stability index of a GFP-peptide fusion (GPS, HEK-293T) (PSI 1-6); higher = more stable. The settings on record: c terminus: a fixed tail appended.
As to VMTLPLDLRKHRRKLLSPVSREEN, the protein stability index was 3.38. With VMTLPEDLRKHRRKLLSPVSREEN, the protein stability index amounted to 3.85. The same measure for VMTLPTDLRKHRRKLLSPVSREEN: 3.52; for VMTLPPDLRKHRRKLLSPVSREEN: 3.97; for VMTLPHDLRKHRRKLLSPVSREEN: 3.52. To VMTLPGDLRKHRRKLLSPVSREEN belongs 3.65; to VMTLPCDLRKHRRKLLSPVSREEN, 3.6; to VMTLPIDLRKHRRKLLSPVSREEN, 3.04. The same measure for VMTLPADLRKHRRKLLSPVSREEN: 3.93; for VMTLPKDLRKHRRKLLSPVSREEN: 3.24; for VMTLPRDLRKHRRKLLSPVSREEN: 3.41. As for VMTLPNDLRKHRRKLLSPVSREEN, the protein stability index is 3.51. With VMTLPMDLRKHRRKLLSPVSREEN, the protein stability index came to 3.4. Turning to VMTLPFDLRKHRRKLLSPVSREEN, the protein stability index was found to be 3.57. As to VMTLPDDLRKHRRKLLSPVSREEN, the protein stability index is 4.02.

Take VMTLPYDLRKHRRKLLSPVSREEN: the protein stability index is 3.5. As for VMTLPQDLRKHRRKLLSPVSREEN, the protein stability index was found to be 3.63. Take VMTLPVDLRKHRRKLLSPVSREEN: the protein stability index came to 2.4. Take VMTLPSDLRKHNRKLLSPVSREEN: the protein stability index stood at 4.14. To VMTLPSDLRKHKRKLLSPVSREEN belongs 3.81; to VMTLPSDLRKHDRKLLSPVSREEN, 4.68. For the variant VMTLPSDLRKHYRKLLSPVSREEN, the protein stability index was 3.35. To VMTLPSDLRKHQRKLLSPVSREEN belongs 4.29; to VMTLPSDLRKHARKLLSPVSREEN, 3.66.

With VMTLPSDLRKHLRKLLSPVSREEN, the protein stability index came out at 2.95. To VMTLPSDLRKHERKLLSPVSREEN belongs 4.58; to VMTLPSDLRKHSRKLLSPVSREEN, 4.12. The same measure for VMTLPSDLRKHHRKLLSPVSREEN: 3.92; for VMTLPSDLRKHTRKLLSPVSREEN: 4.21; for VMTLPSDLRKHIRKLLSPVSREEN: 3.51.

In the case of VMTLPSDLRKHWRKLLSPVSREEN, the protein stability index worked out at 2.73. As to VMTLPSDLRKHPRKLLSPVSREEN, the protein stability index turned out to be 4.34. To VMTLPSDLRKHGRKLLSPVSREEN belongs 3.86; to VMTLPSDLRKHVRKLLSPVSREEN, 3.41; to VMTLPSDLRKHFRKLLSPVSREEN, 3.36. The same measure for VMTLPSDLRKHCRKLLSPVSREEN: 3.34. With VMTLPSDLRKHMRKLLSPVSREEN, the protein stability index stood at 3.47.

As to VMTLPSDLRQHRRKLLSPVSREEN, the protein stability index turned out to be 4.29.

With VMTLPSDLRRHRRKLLSPVSREEN, the protein stability index stood at 3.95. Regarding VMTLPSDLRDHRRKLLSPVSREEN, the protein stability index worked out at 4.32.

In the case of VMTLPSDLRVHRRKLLSPVSREEN, the protein stability index was found to be 2.96. The same measure for VMTLPSDLRHHRRKLLSPVSREEN: 3.58. For VMTLPSDLRLHRRKLLSPVSREEN, the protein stability index stood at 3.43.

As for VMTLPSDLRFHRRKLLSPVSREEN, the protein stability index turned out to be 2.75. To VMTLPSDLRCHRRKLLSPVSREEN belongs 3.52; to VMTLPSDLRSHRRKLLSPVSREEN, 3.88. The same measure for VMTLPSDLRMHRRKLLSPVSREEN: 3.46. Turning to VMTLPSDLRWHRRKLLSPVSREEN, the protein stability index is 3.35. The same measure for VMTLPSDLRTHRRKLLSPVSREEN: 4.02. Take VMTLPSDLREHRRKLLSPVSREEN: the protein stability index was found to be 3.48.

With VMTLPSDLRPHRRKLLSPVSREEN, the protein stability index is 4.05. The same measure for VMTLPSDLRGHRRKLLSPVSREEN: 3.87; for VMTLPSDLRNHRRKLLSPVSREEN: 3.77; for VMTLPSDLRAHRRKLLSPVSREEN: 4.32. To VMTLPSDLRIHRRKLLSPVSREEN belongs 3.25; to VMTLPSDLRYHRRKLLSPVSREEN, 2.76.

In the case of VMTLPSDLWKHRRKLLSPVSREEN, the protein stability index turned out to be 3.49. Turning to VMTLPSDLCKHRRKLLSPVSREEN, the protein stability index amounted to 4.01. Take VMTLPSDLKKHRRKLLSPVSREEN: the protein stability index is 4. To VMTLPSDLFKHRRKLLSPVSREEN belongs 3.31. To VMTLPSDLMKHRRKLLSPVSREEN belongs 3.53; to VMTLPSDLYKHRRKLLSPVSREEN, 3.41; to VMTLPSDLTKHRRKLLSPVSREEN, 4. On to VMTLPSDLVKHRRKLLSPVSREEN, for which the protein stability index was 3.82.

As for VMTLPSDLEKHRRKLLSPVSREEN, the protein stability index turned out to be 4.11.

Take VMTLPSDLSKHRRKLLSPVSREEN: the protein stability index turned out to be 4.14. To VMTLPSDLIKHRRKLLSPVSREEN belongs 3.69; to VMTLPSDLPKHRRKLLSPVSREEN, 4.44; to VMTLPSDLGKHRRKLLSPVSREEN, 4.46. Consider VMTLPSDLNKHRRKLLSPVSREEN, for which the protein stability index worked out at 4.18.

VMTLPSDLHKHRRKLLSPVSREEN: the protein stability index is 3.9. With VMTLPSDLAKHRRKLLSPVSREEN, the protein stability index amounted to 4.01. The same measure for VMTLPSDLLKHRRKLLSPVSREEN: 3.59. The same measure for VMTLPSDLDKHRRKLLSPVSREEN: 4.1. Regarding VMTLPSDLQKHRRKLLSPVSREEN, the protein stability index came to 4.49. For the variant VMTLFSDLRKHRRKLLSPVSREEN, the protein stability index came out at 2.1. To VMTLASDLRKHRRKLLSPVSREEN belongs 3.06; to VMTLSSDLRKHRRKLLSPVSREEN, 3.08.

VMTLGSDLRKHRRKLLSPVSREEN: the protein stability index was determined as 3.01. VMTLLSDLRKHRRKLLSPVSREEN: the protein stability index was 2.48. For VMTLCSDLRKHRRKLLSPVSREEN, the protein stability index turned out to be 2.63. The same measure for VMTLYSDLRKHRRKLLSPVSREEN: 2.7; for VMTLESDLRKHRRKLLSPVSREEN: 4.18. In the case of VMTLMSDLRKHRRKLLSPVSREEN, the protein stability index was 2.47. To VMTLWSDLRKHRRKLLSPVSREEN belongs 2.25. Consider VMTLQSDLRKHRRKLLSPVSREEN, for which the protein stability index came out at 3.4. For the variant VMTLRSDLRKHRRKLLSPVSREEN, the protein stability index stood at 4. VMTLHSDLRKHRRKLLSPVSREEN: the protein stability index worked out at 2.67. The same measure for VMTLVSDLRKHRRKLLSPVSREEN: 2.76. The same measure for VMTLTSDLRKHRRKLLSPVSREEN: 3.67; for VMTLNSDLRKHRRKLLSPVSREEN: 3.47. The same measure for VMTLDSDLRKHRRKLLSPVSREEN: 4.37.

Regarding VMTLISDLRKHRRKLLSPVSREEN, the protein stability index was found to be 2.12. As for VMTLKSDLRKHRRKLLSPVSREEN, the protein stability index amounted to 3.4.
